± gives the standard deviation of the averaged measurements.
B1: library; a variant is named by its letters at N, in order (parent)
chain: GCUGUCACCGAGAAACUGUGAAGUAUAUCUUAAACCUGGGCACUUAAAAGAUAUAUGGAGUUAGUAGUGCAACCUGCUCGGUCUGAUGAGUCCNNNNNNGGACGAAACAGC

Columns and labels:
cyclic di-GMP [1] = variants of: B1; assay: normalized RNA/DNA level without ligand (relative to sTRSVctl = 100) (log10 (% of sTRSVctl)); HEK293T; ligand: cyclic di-GMP (c-di-GMP-II aptamer); higher = less ribozyme self-cleavage, higher mRNA level; details: reporter: mCherry (pCS4076), ligand present: no
Method in brief: (§1)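 Ribozyme switch library plasmids linked to reporters were introduced into HEK293T cells at 4 µg per 6-well well, with ligand, if any, added 1 h before. Total RNA was extracted with EDTA 72 h later, reverse-transcribed, amplified, barcoded and sequenced. RNA level was computed from RNA over DNA reads relative to a spiked-in non-cleaving sequence or the top sequences, then scaled and log-transformed. The top set was 25 sequences, values were ×100 and log10, and the cutoff was ≥100 DNA reads.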

cyclic di-GMP [2] = variants of: B1; assay: normalized RNA/DNA level with ligand (relative to sTRSVctl = 100) (log10 (% of sTRSVctl)); HEK293T; ligand: cyclic di-GMP (c-di-GMP-II aptamer); ligand concentration (+) RNA-Seq: 1 mM; higher = less ribozyme self-cleavage, higher mRNA level; details: reporter: mCherry (pCS4076), ligand present: yes
Method in brief: as §1

Variant | normalized RNA/DNA level without ligand (log10) (cyclic di-GMP [1]) | normalized RNA/DNA level with ligand (log10) (cyclic di-GMP [2])
CGGAAC | 1.45 ± 0.077 | 1.62 ± 0.14
CGGAAG | 1.745 ± 0.015 | 1.86 ± 0.1
CGGGUU | 1.748 ± 0.012 | 1.82 ± 0.13
CGGGCA | 1.81 ± 0.064 | 1.9 ± 0.13
CGGGCC | 1.92 ± 0.02 | 1.95 ± 0.067
CGGGCU | 1.84 ± 0.033 | 1.92 ± 0.14
CGGGCG | 1.83 ± 0.066 | 1.94 ± 0.092
CGGAUG | 1.64 ± 0.057 | 1.77 ± 0.17
CGGAUC | 1.63 ± 0.036 | 1.72 ± 0.15
GGGAAG | 1.63 ± 0.069 | 1.7145 ± 0.00089
GGGAAA | 1.46 ± 0.14 | 1.544 ± 0.007
GGGAAU | 1.6 ± 0.095 | 1.79 ± 0.14
GGGAAC | 1.68 ± 0.031 | 1.84 ± 0.057
UGCGGG | 1.81 ± 0.045 | 1.92 ± 0.067
UGCGGU | 1.63 ± 0.035 | 1.8 ± 0.12
UGCGGC | 1.757 ± 0.0021 | 1.9 ± 0.12
AGGAUU | 1.49 ± 0.032 | 1.73 ± 0.12
AGCUCU | 1.76 ± 0.096 | 1.88 ± 0.17
AGCUCA | 1.69 ± 0.013 | 1.81 ± 0.12
AGCUCC | 1.81 ± 0.019 | 1.88 ± 0.089
UGGUCU | 1.75 ± 0.048 | 1.91 ± 0.11
UGGUCA | 1.78 ± 0.061 | 1.89 ± 0.067
UGGUCC | 1.86 ± 0.085 | 1.98 ± 0.085

Variant | normalized RNA/DNA level without ligand (log10) (cyclic di-GMP [1]) | normalized RNA/DNA level with ligand (log10) (cyclic di-GMP [2])
CGCUGG | 1.67 ± 0.039 | 1.78 ± 0.086
CGCUGC | 1.806 ± 0.0025 | 1.9 ± 0.092
UGGGUC | 1.8 ± 0.026 | 1.93 ± 0.11
UGGGUG | 1.73 ± 0.04 | 1.86 ± 0.098
UGGGUA | 1.61 ± 0.071 | 1.78 ± 0.029
UGGGUU | 1.717 ± 0.016 | 1.82 ± 0.16
GGGCUC | 1.88 ± 0.051 | 1.98 ± 0.042
GGGUCA | 1.828 ± 0.013 | 1.91 ± 0.16
GGGUCC | 1.91 ± 0.098 | 1.95 ± 0.14
AGGCAU | 1.63 ± 0.018 | 1.83 ± 0.11
AGGCAC | 1.707 ± 0.011 | 1.84 ± 0.12
AGGCAA | 1.45 ± 0.082 | 1.6 ± 0.11
UGGAUA | 1.65 ± 0.043 | 1.8 ± 0.11
UGGAUG | 1.62 ± 0.027 | 1.82 ± 0.11
UGGAUU | 1.669 ± 0.0092 | 1.81 ± 0.13
UGGAUC | 1.699 ± 0.0067 | 1.88 ± 0.097
AGGUGU | 1.66 ± 0.041 | 1.77 ± 0.06
AGGUGG | 1.69 ± 0.031 | 1.78 ± 0.12
AGGUGC | 1.75 ± 0.037 | 1.82 ± 0.11
AGGGAA | 1.41 ± 0.11 | 1.53 ± 0.061
AGGGAU | 1.54 ± 0.084 | 1.74 ± 0.086
AGGGAC | 1.55 ± 0.12 | 1.7 ± 0.16
CGGUUC | 1.55 ± 0.028 | 1.75 ± 0.069

Variant | normalized RNA/DNA level without ligand (log10) (cyclic di-GMP [1]) | normalized RNA/DNA level with ligand (log10) (cyclic di-GMP [2])
UGGGGU | 1.63 ± 0.056 | 1.77 ± 0.11
UGGGGC | 1.767 ± 0.012 | 1.91 ± 0.1
UGGGGG | 1.79 ± 0.055 | 1.87 ± 0.09
UGGGGA | 1.58 ± 0.085 | 1.73 ± 0.073
CGGCGG | 1.68 ± 0.059 | 1.81 ± 0.077
CGGCGU | 1.726 ± 0.013 | 1.91 ± 0.16
CGGCGA | 1.49 ± 0.068 | 1.67 ± 0.11
UGGCAC | 1.72 ± 0.043 | 1.86 ± 0.024
UGGCAG | 1.847 ± 0.0028 | 1.93 ± 0.063
UGGCAA | 1.64 ± 0.028 | 1.8 ± 0.1
CGGUGG | 1.66 ± 0.066 | 1.79 ± 0.1
CGGUGC | 1.785 ± 0.007 | 1.9 ± 0.12
GGCUUA | 1.61 ± 0.074 | 1.79 ± 0.12
GGCUUC | 1.75 ± 0.064 | 1.82 ± 0.12
GGCUUG | 1.64 ± 0.062 | 1.851 ± 0.0082
GGCUUU | 1.73 ± 0.03 | 1.88 ± 0.075
AGGGCG | 1.78 ± 0.0082 | 1.84 ± 0.11
AGGGCU | 1.69 ± 0.034 | 1.85 ± 0.088
AGGGCA | 1.756 ± 0.017 | 1.81 ± 0.048
AGGGCC | 1.84 ± 0.052 | 1.93 ± 0.068
UGGGCC | 1.94 ± 0.036 | 1.97 ± 0.081
UGGGCA | 1.835 ± 0.0077 | 1.93 ± 0.08
UGGGCU | 1.81 ± 0.042 | 1.89 ± 0.089

Variant | normalized RNA/DNA level without ligand (log10) (cyclic di-GMP [1]) | normalized RNA/DNA level with ligand (log10) (cyclic di-GMP [2])
UGGGCG | 1.84 ± 0.035 | 1.92 ± 0.13
UGGCUA | 1.719 ± 0.003 | 1.87 ± 0.11
UGGCUU | 1.694 ± 0.014 | 1.88 ± 0.058
UGGCUG | 1.836 ± 0.013 | 1.9 ± 0.095
UGGCUC | 1.78 ± 0.047 | 1.92 ± 0.077
AGGUAG | 1.54 ± 0.034 | 1.66 ± 0.046
AGGUAC | 1.67 ± 0.038 | 1.81 ± 0.077
GGGUAU | 1.75 ± 0.041 | 1.9 ± 0.23
GGGUAA | 1.61 ± 0.091 | 1.7 ± 0.12
GGGUAG | 1.85 ± 0.057 | 1.89 ± 0.059
GGGUAC | 1.73 ± 0.012 | 1.8 ± 0.045
GGCUAC | 1.7 ± 0.023 | 1.84 ± 0.085
GGCUAA | 1.55 ± 0.09 | 1.71 ± 0.14
GGCUAG | 1.5161 ± 0.00019 | 1.683 ± 0.0052
GGCUAU | 1.66 ± 0.048 | 1.78 ± 0.021
CGGCAG | 1.792 ± 0.0062 | 1.86 ± 0.077
GGGGAA | 1.48 ± 0.1 | 1.54 ± 0.055
UGCUUA | 1.75 ± 0.023 | 1.87 ± 0.095
UGCUUG | 1.74 ± 0.06 | 1.88 ± 0.14
UGCUUC | 1.766 ± 0.017 | 1.89 ± 0.093
AGCGUU | 1.678 ± 0.0089 | 1.82 ± 0.16
AGCGUA | 1.55 ± 0.087 | 1.71 ± 0.1
UGCUGA | 1.6 ± 0.017 | 1.8 ± 0.085

Variant | normalized RNA/DNA level without ligand (log10) (cyclic di-GMP [1]) | normalized RNA/DNA level with ligand (log10) (cyclic di-GMP [2])
UGCUGG | 1.696 ± 0.014 | 1.87 ± 0.15
UGCUGC | 1.76 ± 0.025 | 1.92 ± 0.1
UGCUGU | 1.748 ± 0.01 | 1.87 ± 0.1
AGCUUA | 1.57 ± 0.055 | 1.76 ± 0.11
AGCUUU | 1.712 ± 0.0062 | 1.85 ± 0.12
AGCUUC | 1.77 ± 0.026 | 1.9 ± 0.059
CGCUUG | 1.73 ± 0.043 | 1.88 ± 0.055
CGCUUC | 1.62 ± 0.051 | 1.81 ± 0.081
CGGGAC | 1.669 ± 0.012 | 1.79 ± 0.085
CGGGAU | 1.49 ± 0.05 | 1.64 ± 0.13
AGGCUC | 1.78 ± 0.034 | 1.87 ± 0.087
AGGCUG | 1.774 ± 0.0035 | 1.87 ± 0.051
AGGCUA | 1.51 ± 0.084 | 1.65 ± 0.095
UGCUCC | 1.858 ± 0.016 | 1.93 ± 0.17
UGCUCU | 1.77 ± 0.018 | 1.92 ± 0.05
UGCUCA | 1.762 ± 0.015 | 1.85 ± 0.09
UGCUCG | 1.77 ± 0.059 | 1.89 ± 0.16
UGGAGC | 1.64 ± 0.062 | 1.81 ± 0.15
UGGAGU | 1.59 ± 0.1 | 1.76 ± 0.11
UGGAGG | 1.699 ± 0.0024 | 1.84 ± 0.14
UGGAGA | 1.58 ± 0.082 | 1.76 ± 0.069
CGGAGU | 1.63 ± 0.03 | 1.8 ± 0.1
CGGAGA | 1.32 ± 0.11 | 1.55 ± 0.13

Source: the supplement of paper PMC6757056
